In patent publication US20240059757A1 (VIR BIOTECHNOLOGY, published 2024):
Like-named read-outs stand apart in the source and are kept apart here.

Assays:
[1] = target: T1, SARS-CoV RBD (Sino Biological) (SARS-CoV, UniProt P59594 306-527); assay: BLI
[2] = target: T2, SARS-CoV-2 RBD (residues 331-550 of spike from BetaCoV/Wuhan-Hu-1/2019, accession number MN908947) (SARS-CoV-2 Wuhan-Hu-1, UniProt P0DTC2 331-550); assay: BLI
[3] = target: T3, SARS-CoV-2 Spike protein (SARS-CoV-2 Wuhan-Hu-1, UniProt P0DTC2 14-1273); assay: cell-based or functional assay
[4] = target: T4, SARS-CoV Spike protein (SARS-CoV, UniProt P59594 14-1255); assay: cell-based or functional assay
[5] = target: T2, SARS-CoV-2 RBD (residues 331-550 of …)
[6] = target: T4, SARS-CoV Spike protein; assay: cell-based or functional assay; remark: listed apart in the source
[7] = target: T2, SARS-CoV-2 RBD (residues 331-550 of …); remark: listed apart in the source
[8] = target: T1, SARS-CoV RBD (Sino Biological)
[9] = target: T2, SARS-CoV-2 RBD (residues 331-550 of …); remark: listed apart in the source
[10] = target: T5, SARS-CoV-2 RBD-mouse Fc (Sino Biological) (SARS-CoV-2, UniProt P0DTC2 331-541)
[11] = target: T1, SARS-CoV RBD (Sino Biological); remark: listed apart in the source
[12] = target: T4, SARS-CoV Spike protein
[13] = target: T3, SARS-CoV-2 Spike protein; assay: cell-based or functional assay; remark: listed apart in the source
[14] = target: T3, SARS-CoV-2 Spike protein; assay: cell-based or functional assay; remark: listed apart in the source
[15] = target: T1, SARS-CoV RBD (Sino Biological); assay: ELISA
[16] = target: T2, SARS-CoV-2 RBD (residues 331-550 of …); assay: ELISA
[17] = target: T1, SARS-CoV RBD (Sino Biological); assay: BLI; remark: listed apart in the source
[18] = target: T2, SARS-CoV-2 RBD (residues 331-550 of …); assay: BLI; remark: listed apart in the source
[19] = target: T1, SARS-CoV RBD (Sino Biological); assay: ELISA; remark: listed apart in the source
[20] = target: T2, SARS-CoV-2 RBD (residues 331-550 of …); assay: ELISA, plate coated with SARS-CoV-2 RBD; antibodies as rIgG1-LS
[21] = target: T3, SARS-CoV-2 Spike protein; assay: cell-based or functional assay; remark: listed apart in the source
[22] = target: T2, SARS-CoV-2 RBD (residues 331-550 of …); assay: BLI (Octet): antibody on Protein A pins, SARS-CoV-2 RBD at 6, 1.5 and 0.4 µg/ml
[23] = target: T5, SARS-CoV-2 RBD-mouse Fc (Sino …); remark: listed apart in the source
[24] = target: T2, SARS-CoV-2 RBD (residues 331-550 of …); assay: BLI (Octet): antibody on Protein A pins, SARS-CoV-2 RBD at 6, 1.5 and 0.4 µg/ml; remark: listed apart in the source
[25] = target: T2, SARS-CoV-2 RBD (residues 331-550 of …); remark: listed apart in the source
[26] = target: T1, SARS-CoV RBD (Sino Biological); remark: listed apart in the source
[27] = target: T2, SARS-CoV-2 RBD (residues 331-550 of …); remark: listed apart in the source
[28] = target: T2, SARS-CoV-2 RBD (residues 331-550 of …); assay: ELISA, plate coated with SARS-CoV-2 RBD, OD405nm
[29] = target: T2, SARS-CoV-2 RBD (residues 331-550 of …); assay: ELISA, plate coated with SARS-CoV-2 RBD; antibodies as rIgG1-LS; remark: listed apart in the source

B1: S2X259 (antibody, V domains shown)
VH: QVQLVQSGAEVKKPGSSVKVSCKASGGIFNTYTISWVRQAPGQGLEWMGRIILMSGMANYAQKIQGRVTITADKSTSTAYMELTSLRSDDTAVYYCARGFNGNYYGWGDDDAFDISGQGTLVTVYS
VL: QTVLTQPPSVSGAPGQRVTISCTGSNSNIGAGYDVHWYQQLPGTAPKLLICGNSNRPSGVPDRFSGSKSGTSASLAITGLQAEDEADYYCQSYDSSLSGPNWVFGGGTKLTVL
- Kd [1]: 0.862 nM
- Kd [2]: 0.0874 nM
- neutralization IC50 [3]: 0.046 µg/mL
- neutralization IC50 [4]: 0.189 µg/mL
- EC50 (read off the curve) [5]: ~7 µg/mL
- neutralization IC50 [6]: 0.0806 µg/mL
- EC50 [7]: 0.00352 µg/mL
- IC50 [8]: 0.01 µg/mL
- IC50 [9]: 0.00921 µg/mL
- IC50 [10]: 0.0221 µg/mL
- EC50 [11]: 0.00151 µg/mL
- EC50 [12]: 0.00215 µg/mL
- neutralization IC50 [13]: 0.184 µg/mL
- neutralization IC50 [14]: 0.231 µg/mL
- EC50 [15]: 0.0285 µg/mL
- EC50 [16]: 0.0343 µg/mL
- Kd [17]: 0.537 nM
- Kd [18]: ≤ 0.001 nM

B2: S2D60 (antibody, V domains shown)
VH: EVQLVQSGPEVKKPGTSVKVSCKASGFTFMSSAVQWVRQARGQRLEWIGWIVVGSGNTNYTQKFRERVTITRDMSTSTAYMELSSLRSEDTAVYYCAAPRCSGGSCHDGFDIWGQGTMVTVSS
VL: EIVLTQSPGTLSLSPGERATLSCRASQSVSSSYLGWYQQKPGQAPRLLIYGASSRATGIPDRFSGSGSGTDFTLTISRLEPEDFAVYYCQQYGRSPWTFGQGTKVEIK
- binding result [19]: no binding
- EC50 (read off the curve) [20]: ~0.1 µg/mL
- neutralization IC50 [21]: 0.012 µg/mL
- neutralization IC80 [21]: 0.04 µg/mL
- neutralization IC90 [21]: 0.084 µg/mL
- neutralization IC95 [21]: 0.164 µg/mL

B3: S2X132 (antibody, V domains shown)
VH: EVQLVESGGGLVQPGGSLRLSCAASGFTVSSNYMSWVRQAPGKGLEWVSVIYSGGNTYYADSVKGRFTISRDNSKNTLYLQMISLRAEDTAVYYCARDRRLPSIIFGLDVWGQGTTVTVSS
VL: QSALTQPASVSGSPGQSITISCTGTSSDVGGNNHVSWYRQHPGKAPKLMIYEVSNRPSGVSNRFSGSKSGNTASLTISGLQAGDEADYYCSSFTTYTTDVVFGGGTKLTVL
- Kd [22]: 0.709 nM
- IC50 [23]: 0.0248 µg/mL

B4: S2X190 (antibody, V domains shown)
VH: EVQLVESGGGVVQPGRSLRLSCAASGFPFSTYGMHWVRQAPGKGLEWVAVIWYDGSTKYYADSVKGRFTISRDNSKNTLYLQMNSLRAEDTALYYCARVHSSGPGDEYFQHWGQGTLLTVSS
VL: DIVMTQSPSSLSASVGDRVTITCRASQGISSGLAWYQQKPGKGPKVLIYDASSLESGVPSRFSGSASGTDFTLTISSLQPEDFATYFCQQFYSYPLTFGGGTKVEIK
- Kd [24]: 0.923 nM
- IC50 [23]: 0.02 µg/mL

B5: S2X200 (antibody, V domains shown)
VH: EVHLVESGGGLIQPGGSLRLSCAASGITVSSNYMSWVRQAPGKGLEWVSVIYSGGSTFYADSVKGRFTISRDNSKNTVYLQMNSLRAEDTAVYYCARDLVTYGMDVWGQGTTVTVSS
VL: EIVLTQSPSFLSASVGDRVTITCRASQGISSYLAWYQQKPGKAPKLLIYAASTLQSGVPSRFSGSGSGTEFTLTISSLQPEDFATYYCQQLNGDPPIFGHGTRLEIK
- EC50 [25]: 0.00151 µg/mL

B6: S2X259 Fab (Fab, V domains shown)
VH: QVQLVQSGAEVKKPGSSVKVSCKASGGIFNTYTISWVRQAPGQGLEWMGRIILMSGMANYAQKIQGRVTITADKSTSTAYMELTSLRSDDTAVYYCARGFNGNYYGWGDDDAFDISGQGTLVTVYS
VL: QTVLTQPPSVSGAPGQRVTISCTGSNSNIGAGYDVHWYQQLPGTAPKLLICGNSNRPSGVPDRFSGSKSGTSASLAITGLQAEDEADYYCQSYDSSLSGPNWVFGGGTKLTVL
- Kd [26]: 1.6 nM
- Kd [27]: 0.08 nM

B7: S2F1 (antibody, V domains shown)
VH: EVQLLESGGGLVQPGGSLRLSCAGSGFSVSNHAMSWVRQAPGKGLEWVSAIGGSDSTTYYADSVKGRFAISRDNSKNTLYLQMNSLRADDTAIYYCAKDNYTSTWFPFDYWGQGTQVIVSS
VL: DVVMTQSPLSLPVTLGQPASISCRSSHSLVHGDGNTYLNWFQQRPGQSPRRLIHKVSNRDSGVPDRFSGSGSGTDFTLKISRVEAEDVGVYYCMQGSYWPPWTFGQGTKVEIN
- binding result [28]: binds

B8: S2D43 (antibody, V domains shown)
VH: QVTLKESGPTLVKPTQTLTLTCTFSGFSLSTSGVGVGWLRQPPGKALEWLALIYWDDDKRYSPSLKNRLTVTKDTSKNQVVLTMTNLDPVDTATYYCAHDNTLGGSSTWQSTFDYWGQGTLVTVSS
VL: QSVLTQPPSVSEAPRQRVTISCSGSNSNIGNNAVHWYQQLPGKAPKLLIYYDDLLPSGVSDRFSGSKSGTSASLAISGLQSEDEADYYCAAWDDRMNGPVFGGGTKLTVL
- binding result [29]: binds
